According to the supplement of paper PMC7877785:
± gives the uncertainty stated by the source.

Assay: self-splicing fitness, log relative to wild type (ln ratio); higher = more splicing; Tetrahymena group I intron in knt gene, E. coli kanamycin selection, DiMSum; sequences stand for … in CUCUCU…GGAGGGAAAAGUUAUCAGGCAUGCACCUGGUAGCUAGUCUUUAAACCAAUAGAUUGCAUCGGUUUAAAAGGCAAGACCGUCAAAUUGCGGGAAAGGGGUCAACAGCCGUUCAGUACCAAGUCUCAGGGGAAACUUUGAGAUGGCCUUGCAAAGGGUAUGGUAAUAAGCUGACGGACAUGGUCCUAACCACGCAGCCAAGUCCUAAGUCAACAGAUCUUCUGUUGAUAUGGAUGCAGUUCACAGACUAAAUGUCGGUCGGGGAAGAUGUAUUCUUCUCAUAAGAUAUAGUCGGACCUCUCCUUAAUGGGAGCUAGCGGAUGAAGUGAUGCAACACUGGAGCCGCUGGGAACUAAUUUGUAUGCGAAAGUAUAUUGAUUAGUUUUGGAGUACUCGUGGUCG
In short: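 Library with all eight P1ex-region intron nucleotides randomised, intron inside the knt kanamycin-resistance gene on pET-22b(+), in E. coli BL21(DE3). Cells grew overnight at 37°C or 30°C on LB agar with or without 25 μg/mL kanamycin (plus 100 μg/mL carbenicillin, 50 μM IPTG, 0.2% rhamnose), in six replicate transformations. Pooled colonies were amplicon-sequenced on Illumina HiSeq 2500. DiMSum fitness is the error-weighted combination of wild-type-normalised replicate fold changes, kanamycin versus none.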

Sequence | self-splicing fitness (ln) (30 °C) | self-splicing fitness (ln) (37 °C)
GGUUAGCAAUAUUACGAUGC | -0.237 ± 0.13 | -0.251 ± 0.16
GGUUAGCAAUAUUACGCCUU | -1.48 ± 0.11 | -0.406 ± 0.14
GGUUAGCAAUAUUACGCGGC | -2.62 ± 0.29 | 
GGUUAGCAAUAUUACGCGUA | -0.642 ± 0.091 | -0.174 ± 0.083
GGUUAGCAAUAUUACGCUGU | -2.1 ± 0.15 | -0.41 ± 0.14
GGUUAGCAAUAUUACGGCAU | -0.0374 ± 0.082 | -0.0754 ± 0.096
GGUUAGCAAUAUUACGGGGU | -3.61 ± 0.4 | -0.0656 ± 0.17
GGUUAGCAAUAUUACGGUAA | -1.02 ± 0.15 | -0.716 ± 0.14
GGUUAGCAAUAUUACGGUCC | -1.77 ± 0.49 | 
GGUUAGCAAUAUUACGUACU | -1.22 ± 0.24 | -1.27 ± 0.32
GGUUAGCAAUAUUACGUCGC | -1.25 ± 0.24 | -0.982 ± 0.26
GGUUAGCAAUAUUACGUCUA | -0.569 ± 0.12 | -0.565 ± 0.093
GUAAAGCAAUAUUACGACCC | -1.28 ± 0.32 | -0.886 ± 0.41
GUAAAGCAAUAUUACGAGAC | -2.46 ± 0.22 | -1.08 ± 0.29
GUAAAGCAAUAUUACGAGAU | -2.12 ± 0.12 | -1.99 ± 0.15
GUAAAGCAAUAUUACGAGCU | -1.4 ± 0.13 | -0.306 ± 0.18
GUAAAGCAAUAUUACGCAGC | -2.42 ± 0.22 | -1.25 ± 0.2
GUAAAGCAAUAUUACGCAUG | -1.15 ± 0.077 | -0.761 ± 0.1
GUAAAGCAAUAUUACGCCCA | 0.335 ± 0.062 | 0.419 ± 0.085
GUAAAGCAAUAUUACGCCCC | -0.801 ± 0.089 | -0.0225 ± 0.12
GUAAAGCAAUAUUACGCCCG | 0.162 ± 0.18 | -0.247 ± 0.19
GUAAAGCAAUAUUACGCGAA | -0.868 ± 0.08 | -1.25 ± 0.1
GUAAAGCAAUAUUACGCGGG | -1.74 ± 0.12 | -2.08 ± 0.19
GUAAAGCAAUAUUACGCUGC | -2.97 ± 0.24 | -1.97 ± 0.28
GUAAAGCAAUAUUACGGAUC | -0.198 ± 0.12 | 0.205 ± 0.15

Sequence | self-splicing fitness (ln) (30 °C) | self-splicing fitness (ln) (37 °C)
GUAAAGCAAUAUUACGGCGG | -1.39 ± 0.1 | -1.76 ± 0.16
GUAAAGCAAUAUUACGGGAA | -2.36 ± 0.11 | -0.287 ± 0.12
GUAAAGCAAUAUUACGGGGA | -2.91 ± 0.19 | -2.4 ± 0.21
GUAAAGCAAUAUUACGGGGC | -3.07 ± 0.23 | -2.29 ± 0.15
GUAAAGCAAUAUUACGGUCU | -0.245 ± 0.071 | 0.0323 ± 0.092
GUAAAGCAAUAUUACGGUGA | -0.896 ± 0.084 | -0.575 ± 0.1
GUAAAGCAAUAUUACGGUUU | -0.83 ± 0.055 | 0.0852 ± 0.077
GUAAAGCAAUAUUACGUACA | -0.0825 ± 0.078 | 0.111 ± 0.09
GUAAAGCAAUAUUACGUCGA | -0.947 ± 0.088 | -0.407 ± 0.1
GUAAAGCAAUAUUACGUGAA | -1.96 ± 0.1 | -1.39 ± 0.12
GUAAAGCAAUAUUACGUGAU | -2.02 ± 0.085 | -1.52 ± 0.12
GUAAAGCAAUAUUACGUUAA | -2 ± 0.093 | -1.69 ± 0.14
GUACAGCAAUAUUACGAAAA | -1.66 ± 0.19 | -2.31 ± 0.25
GUACAGCAAUAUUACGAAAC | -1.74 ± 0.1 | -0.531 ± 0.12
GUACAGCAAUAUUACGAAAU | -2.34 ± 0.12 | -0.906 ± 0.11
GUACAGCAAUAUUACGAACU | -0.664 ± 0.15 | -1.24 ± 0.2
GUACAGCAAUAUUACGAAUU | -2.29 ± 0.16 | -1.69 ± 0.15
GUACAGCAAUAUUACGACUG | -1.83 ± 0.13 | -1.33 ± 0.14
GUACAGCAAUAUUACGAGUC | -1.88 ± 0.085 | -1.53 ± 0.096
GUACAGCAAUAUUACGAUCU | -0.934 ± 0.087 | -0.527 ± 0.094
GUACAGCAAUAUUACGAUUA | -0.7 ± 0.095 | -0.556 ± 0.1
GUACAGCAAUAUUACGCAGA |  | -2.72 ± 0.2
GUACAGCAAUAUUACGCAUG | -2.26 ± 0.075 | -1.03 ± 0.08
GUACAGCAAUAUUACGCCAC | -1.49 ± 0.39 | 
GUACAGCAAUAUUACGCGUU | -2.61 ± 0.15 | -1.35 ± 0.14

Sequence | self-splicing fitness (ln) (30 °C) | self-splicing fitness (ln) (37 °C)
GUACAGCAAUAUUACGGACA | -2.13 ± 0.12 | -1.13 ± 0.1
GUACAGCAAUAUUACGGAGG | -3.92 ± 0.34 | -2.92 ± 0.44
GUACAGCAAUAUUACGGCCG | -1.89 ± 0.1 | -0.534 ± 0.13
GUACAGCAAUAUUACGGGCG | -2.46 ± 0.18 | -1.11 ± 0.15
GUACAGCAAUAUUACGGGUC | -4.33 ± 0.31 | -2.79 ± 0.33
GUACAGCAAUAUUACGGGUG | -2.02 ± 0.098 | -1.67 ± 0.13
GUACAGCAAUAUUACGGGUU | -3.13 ± 0.09 | -2.22 ± 0.099
GUACAGCAAUAUUACGGUGU | -3.2 ± 0.14 | -1.51 ± 0.13
GUACAGCAAUAUUACGGUUU | -0.599 ± 0.044 | -0.0338 ± 0.06
GUACAGCAAUAUUACGUAAG | -1.08 ± 0.096 | -0.465 ± 0.11
GUACAGCAAUAUUACGUAGA | -2.65 ± 0.11 | -1.35 ± 0.14
GUACAGCAAUAUUACGUAGU | -2.84 ± 0.11 | -2.08 ± 0.14
GUACAGCAAUAUUACGUCCU | -1.4 ± 0.12 | -0.91 ± 0.11
GUACAGCAAUAUUACGUGCU | -3.17 ± 0.18 | -3.14 ± 0.24
GUACAGCAAUAUUACGUGUC | -3.39 ± 0.2 | -2.06 ± 0.2
GUACAGCAAUAUUACGUUGG | -3.39 ± 0.21 | -2.16 ± 0.15
GUAGAGCAAUAUUACGACCU | -1.39 ± 0.15 | -0.95 ± 0.2
GUAGAGCAAUAUUACGACGC | -0.313 ± 0.16 | 0.929 ± 0.22
GUAGAGCAAUAUUACGAGAA | -3.8 ± 0.34 | -1.72 ± 0.47
GUAGAGCAAUAUUACGAUGA | -1.5 ± 0.1 | -0.479 ± 0.12
GUAGAGCAAUAUUACGAUGU | -1.04 ± 0.18 | -0.121 ± 0.19
GUAGAGCAAUAUUACGCCGU | -1.3 ± 0.33 | -0.778 ± 0.45
GUAGAGCAAUAUUACGCGAU | -3.22 ± 0.2 | 0.14 ± 0.16
GUAGAGCAAUAUUACGCGCC | -3.54 ± 0.29 | -1.67 ± 0.38
GUAGAGCAAUAUUACGGAAC | -1.59 ± 0.3 | 

Sequence | self-splicing fitness (ln) (30 °C) | self-splicing fitness (ln) (37 °C)
GUAGAGCAAUAUUACGGACU | -1.4 ± 0.18 | -0.459 ± 0.23
GUAGAGCAAUAUUACGGAUU | -2.61 ± 0.24 | -0.513 ± 0.2
GUAGAGCAAUAUUACGGCAA | -2.01 ± 0.13 | -0.535 ± 0.21
GUAGAGCAAUAUUACGGCAC | -0.941 ± 0.4 | 
GUAGAGCAAUAUUACGGCCC | -1.36 ± 0.29 | -0.935 ± 0.32
GUAGAGCAAUAUUACGGGAA | -3.56 ± 0.32 | -2.35 ± 0.26
GUAGAGCAAUAUUACGGGGU | -3.18 ± 0.2 | -2.07 ± 0.15
GUAGAGCAAUAUUACGGGUG | -2.72 ± 0.22 | -2.93 ± 0.28
GUAGAGCAAUAUUACGUACC | -3.88 ± 0.47 | -1.59 ± 0.37
GUAGAGCAAUAUUACGUCCA | -2.45 ± 0.28 | -0.739 ± 0.34
GUAGAGCAAUAUUACGUUCG | -1.08 ± 0.065 | -0.139 ± 0.13
GUAGAGCAAUAUUACGUUGG | -2.16 ± 0.11 | -2.04 ± 0.15
GUAUAGCAAUAUUACGAGAC | -1.38 ± 0.4 | -1.24 ± 0.47
GUAUAGCAAUAUUACGAGCG | -1.98 ± 0.16 | -1.39 ± 0.14
GUAUAGCAAUAUUACGAUAG | -1.67 ± 0.099 | -0.533 ± 0.1
GUAUAGCAAUAUUACGAUUG | -3.48 ± 0.42 | -1.67 ± 0.3
GUAUAGCAAUAUUACGCCAG | -3.17 ± 0.33 | -1.26 ± 0.29
GUAUAGCAAUAUUACGCUAU | -3.33 ± 0.33 | -1.23 ± 0.28
GUAUAGCAAUAUUACGGAGA |  | -2.57 ± 0.45
GUAUAGCAAUAUUACGGCCC |  | -0.246 ± 0.44
GUAUAGCAAUAUUACGGGAG |  | -1.77 ± 0.35
GUAUAGCAAUAUUACGGGCA | -1.34 ± 0.24 | -1.35 ± 0.25
GUAUAGCAAUAUUACGGGGA | -2.52 ± 0.22 | -2.83 ± 0.38
